Experimental data taken from patent US20090130070A1, “METHOD OF TREATMENT” (The University of Queensland, priority 2004, published 2009).
“Also recorded” adds a separate entry of the source.

Key:
[1] = Penetration of fluorescently labeled fetuin into lamb burn wounds from different carriers; format: in vivo, Merino lambs; conditions: 2 mg/mL, lamb scald wounds, 24 hours
Protocol: Lyophilized bovine Fetuin (Sigma) was dissolved in purified water at a concentration of 10 mg/mL. Aliquots of 200 μL were labeled using a FluoReporter Oregon Green® 488 Protein Labeling Kit (Molecular Probes). Assuming 85% recovery from the kit, the solution was dried down using a vacuum concentrator (Labconco) and added at 2 mg/mL to one of 3 different carriers: paraffin cream, aqueous cream (Orion, Australia) or dissolved in purified water to make an aqueous solution.
Two Merino lambs were scalded under general anesthesia as described previously. Eight wounds were created on each animal; 2× control wounds with nothing added, 2× aqueous solution treated wounds, 2× aqueous cream treated wounds and 2× paraffin cream treated wounds. The wounds were dressed with Melolin and Sleek and the lambs awoken and returned to the pens. 24 hours later the lambs were euthanized and the burn wounds (as well as an unburned area) were collected and fixed in formalin for paraffin embedding. Sections of (4 μm) were taken and examined under a Nikon EP epifluorescent microscope to determine the extent of fetuin penetration in each of the carriers. Brightfield transmittance and Fluorescent green images were captured with a Spot RT slider cooled CCD camera and overlayed with using Photoshop software.

BMP-6 = target: T1, BMP-6 (Homo sapiens, UniProt P22004); conditions: cited from earlier work
T1 sequence (P22004 375-513): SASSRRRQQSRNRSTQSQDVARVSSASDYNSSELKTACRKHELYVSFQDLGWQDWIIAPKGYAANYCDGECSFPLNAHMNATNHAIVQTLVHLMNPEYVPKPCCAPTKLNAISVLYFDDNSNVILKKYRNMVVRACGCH

[2] = Penetration of Oregon green labeled fetuin A into wounds in the porcine burn model; format: in vivo, pigs; conditions: 4 hours post treatment
Protocol: The potential use of the protein as a topical application was explored by labeling the protein with FluoroReporter Oregon Green® 488 Protein (Molecular Probes) then applying it as 1) a hydrophobic cream 2) a hydrophilic cream and an aqueous solution. These were applied to a porcine burn model and skin samples were collected 4 hours after application. Penetration of the protein into the wound was observed by epifluorescent microscopy.
Lyophilised bovine Fetuin A (Sigma) was dissolved in purified water at a concentration of 10 mg/mL. Aliquots of 200 μl were labelled using a FluoroReporter Oregon Green® 488 Protein Labelling Kit (Molecular Probes) after the manufacturer's instructions. The resulting solution was dried down using a Labconco Centrivap concentrator and weighed. Sufficient carriers (paraffin cream (Orion, Australia), aqueous cream (Orion, Australia) or purified water) were added to produce a final concentration of 2 mg/ml of solution or 2 mg/g fetuin cream. Sufficient unlabelled fetuin A was added to the solution and cream to bring the total fetuin A concentration up to 40 mg/ml or gram.
All animal experiments were approved by the University of Queensland animal ethics committee. Six 20 kg pigs (approximately 9 weeks post partum) were scalded under general anaesthesia. Water (400 mls) was placed in a 500 ml Schott bottle whose base had been removed with a diamond saw and replaced by cling wrap held in place by autoclave tape. The water was heated in a microwave oven to 92° C. (temperature was measured with a Dick Smith Q1437 digital thermometer) then the bottle was placed on the clipped side of the animal for 15 seconds. A single 8.5 cm diameter wound was placed on each side of the animal. Each animal received a different treatment these being:
1. Treatment of intact skin with an aqueous solution of 2 mls of Oregon green labeled bovine fetuin (40 mg/ml in sterile phosphate buffered saline pH 7.4).
2. Treatment of intact skin with an aqueous gel of 2 g of Oregon green labeled bovine fetuin (40 mg/g in Solosite™ wound gel).
3. […]

TGF-β2 = target: T2, TGF-β2 (Homo sapiens, UniProt P61812); conditions: cited from earlier work
T2 sequence (P61812 303-414 limits assumed): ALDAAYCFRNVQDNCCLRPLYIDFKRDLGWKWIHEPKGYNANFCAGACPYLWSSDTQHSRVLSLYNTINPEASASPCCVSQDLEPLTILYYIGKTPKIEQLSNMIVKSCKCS

TGF-β3 = target: T3, TGF-β3 (Homo sapiens, UniProt P10600); conditions: cited from earlier work
T3 sequence (P10600 301-412 limits assumed): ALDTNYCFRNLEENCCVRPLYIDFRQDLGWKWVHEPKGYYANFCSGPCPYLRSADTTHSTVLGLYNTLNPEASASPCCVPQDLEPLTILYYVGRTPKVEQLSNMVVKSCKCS

BMP-4 = target: T4, BMP-4 (Homo sapiens, UniProt P12644); conditions: cited from earlier work
T4 sequence (P12644 293-408): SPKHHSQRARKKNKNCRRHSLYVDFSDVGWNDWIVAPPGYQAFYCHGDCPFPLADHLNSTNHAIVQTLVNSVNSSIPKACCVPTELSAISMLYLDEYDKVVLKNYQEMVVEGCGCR

TGF-β1 = TGF-β1 (Homo sapiens, UniProt P01137); conditions: cited from earlier work
BMP-2 = target: T5, BMP-2 (Homo sapiens, UniProt P12643); conditions: cited from earlier work
T5 sequence (P12643 283-396): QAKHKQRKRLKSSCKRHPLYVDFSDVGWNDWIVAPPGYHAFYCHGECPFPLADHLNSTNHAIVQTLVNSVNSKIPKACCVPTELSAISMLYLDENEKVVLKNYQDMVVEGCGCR

TGF-β1, sequence (P01137 279-390 limits assumed, species assumed): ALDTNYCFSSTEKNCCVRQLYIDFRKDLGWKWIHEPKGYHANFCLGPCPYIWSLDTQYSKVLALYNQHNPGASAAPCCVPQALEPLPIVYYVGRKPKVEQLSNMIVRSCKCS

Fetuin: bovine fetuin A (Sigma); glycoprotein also called alpha2-Heremans-Schmid-glycoprotein (AHSG)
penetration of labeled fetuin into burn tissue ([1]; aqueous solution): good penetration; also recorded: on the epidermis and at the end of hair follicles
penetration of labeled fetuin into burn tissue ([1]; oil based paraffin cream): little or no penetration
penetration of labeled fetuin into burn tissue ([1]; water based (aqueous) cream): good penetration; also recorded: penetration to the base of the hair follicles
binding to BMP-6 (BMP-6): strongly
penetration into the wound bed ([2]; debrided wound, aqueous solution): significant penetration into the wound bed
penetration into the wound bed ([2]; debrided wound, water based gel): significant penetration into the wound bed
penetration into the wound bed ([2]; direct injection into the wound): significant penetration into the wound bed
binding to TGF-β2 (TGF-β2): strongly
binding to TGF-β3 (TGF-β3): weakly
binding to BMP-4 (BMP-4): strongly
binding to TGF-β1 (TGF-β1): strongly
binding to BMP-2 (BMP-2): strongly
